Source: US20220339270A1 (published 2022)

Experiments:
[1] = target: T1, wild-type tau (441 amino acids; tau441; NP_005901.2) (human, UniProt P10636 1-758); assay: wild-type tau ELISA, ExpiCHO supernatant
T1 construct: Unphosphorylated recombinant tau441 used in the wild-type tau ELISA; also called wt tau441; wtTau

[2] = target: T1, wild-type tau (441 amino acids; tau441; …); assay: wtTau ELISA
[3] = target: T2, extracellular tau in the form of paired helical filaments (ePHF tau) (UniProt P10636-8 1-441, limits assumed); assay: ePHF tau ELISA, ePHF coated; antibody at 0.7 ng/ml; anti-mouse-HRP
T2 construct: Aggregated, hyperphosphorylated tau preparation; not a single defined polypeptide

[4] = target: T2, extracellular tau in the form of paired …; assay: ePHF tau ELISA, ePHF coated; antibody at 2.1 ng/ml; anti-mouse-HRP
[5] = target: T2, extracellular tau in the form of paired …; assay: ePHF tau ELISA, ePHF coated; antibody at 6.2 ng/ml; anti-mouse-HRP
[6] = target: T2, extracellular tau in the form of paired …; assay: ePHF tau ELISA, ePHF coated; antibody at 18.5 ng/ml; anti-mouse-HRP
[7] = target: T2, extracellular tau in the form of paired …; assay: ePHF tau ELISA, ePHF coated; antibody at 55.6 ng/ml; anti-mouse-HRP
[8] = target: T2, extracellular tau in the form of paired …; assay: ePHF tau ELISA, ePHF coated; antibody at 166.7 ng/ml; anti-mouse-HRP
[9] = target: T2, extracellular tau in the form of paired …; assay: ePHF tau ELISA, ePHF coated; antibody at 500.0 ng/ml; anti-mouse-HRP
[10] = target: T2, extracellular tau in the form of paired …; assay: ePHF tau ELISA, ePHF coated; antibody at 1000.0 ng/ml; anti-mouse-HRP

T2 sequence (P10636 other isoform, or with tags, fused parts or gaps limits assumed): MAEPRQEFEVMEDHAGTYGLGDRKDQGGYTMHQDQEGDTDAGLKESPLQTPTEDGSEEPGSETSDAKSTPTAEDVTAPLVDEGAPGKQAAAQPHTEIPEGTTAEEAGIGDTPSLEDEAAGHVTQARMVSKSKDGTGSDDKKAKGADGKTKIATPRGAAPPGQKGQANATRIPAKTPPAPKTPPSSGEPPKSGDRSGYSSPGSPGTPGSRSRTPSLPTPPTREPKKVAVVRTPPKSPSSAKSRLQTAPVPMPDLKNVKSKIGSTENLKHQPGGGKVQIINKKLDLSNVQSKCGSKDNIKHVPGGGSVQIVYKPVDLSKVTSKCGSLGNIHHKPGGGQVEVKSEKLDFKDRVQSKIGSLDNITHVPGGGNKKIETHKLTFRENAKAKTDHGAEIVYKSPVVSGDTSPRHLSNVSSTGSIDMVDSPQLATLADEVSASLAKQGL
T1 sequence (P10636 other isoform, or with tags, fused parts or gaps limits assumed): as above

B1: IPN002 antibody expressed from CAG-IPN002-HF.T2AL (TAU_ITR1) (antibody, V domains shown)
VH: EVHLVESGGALVKPGGSLKLSCAASGFSFSKYGMSWVRQTPDKRLEWVATISSSGSRTYYPDSVKGQFTISRDNAKNTLYLQMSSLKSEDTAMYYCSISWDGAMDYWGQGTSVTVSS
VL: DVLMTQTPLSLPVSLGDQASISCKSSQSIVHSNGNTYLEWYLQKPGQSPKLLVYKVSNRFSGVPDRFSGSGSGTDFTLKISRVEAEDLGTYYCFQGSLVPWAFGGGTKLEIK
binding result [1]: binds

B2: IPN002 Fab_ext expressed from TAU_ITR129 (CBA, hGbin, LT2AH) (Fab, V domains shown)
VH: EVHLVESGGALVKPGGSLKLSCAASGFSFSKYGMSWVRQTPDKRLEWVATISSSGSRTYYPDSVKGQFTISRDNAKNTLYLQMSSLKSEDTAMYYCSISWDGAMDYWGQGTSVTVSS
VL: DVLMTQTPLSLPVSLGDQASISCKSSQSIVHSNGNTYLEWYLQKPGQSPKLLVYKVSNRFSGVPDRFSGSGSGTDFTLKISRVEAEDLGTYYCFQGSLVPWAFGGGTKLEIK
notes: Extended Fab
binding result [2]: binds

B3: IPN002 antibody expressed from CB6-IPN002-LT2AH (TAU_ITR87) (antibody, V domains shown)
VH: EVHLVESGGALVKPGGSLKLSCAASGFSFSKYGMSWVRQTPDKRLEWVATISSSGSRTYYPDSVKGQFTISRDNAKNTLYLQMSSLKSEDTAMYYCSISWDGAMDYWGQGTSVTVSS
VL: DVLMTQTPLSLPVSLGDQASISCKSSQSIVHSNGNTYLEWYLQKPGQSPKLLVYKVSNRFSGVPDRFSGSGSGTDFTLKISRVEAEDLGTYYCFQGSLVPWAFGGGTKLEIK
notes: Full antibody
binding result [1]: binds

B4: IPN002 antibody expressed from CAG-IPN002-LF2AH (TAU_ITR9) (antibody, V domains shown)
VH: EVHLVESGGALVKPGGSLKLSCAASGFSFSKYGMSWVRQTPDKRLEWVATISSSGSRTYYPDSVKGQFTISRDNAKNTLYLQMSSLKSEDTAMYYCSISWDGAMDYWGQGTSVTVSS
VL: DVLMTQTPLSLPVSLGDQASISCKSSQSIVHSNGNTYLEWYLQKPGQSPKLLVYKVSNRFSGVPDRFSGSGSGTDFTLKISRVEAEDLGTYYCFQGSLVPWAFGGGTKLEIK
binding result [1]: binds

B5: IPN002 Fab expressed from TAU_ITR127 (CAG, HF.T2AL) (Fab, V domains shown)
VH: EVHLVESGGALVKPGGSLKLSCAASGFSFSKYGMSWVRQTPDKRLEWVATISSSGSRTYYPDSVKGQFTISRDNAKNTLYLQMSSLKSEDTAMYYCSISWDGAMDYWGQGTSVTVSS
VL: DVLMTQTPLSLPVSLGDQASISCKSSQSIVHSNGNTYLEWYLQKPGQSPKLLVYKVSNRFSGVPDRFSGSGSGTDFTLKISRVEAEDLGTYYCFQGSLVPWAFGGGTKLEIK
binding result [2]: binds

B6: IPN002 Fab_ext expressed from TAU_ITR124 (CBA, hGbin, HF.T2AL) (Fab, V domains shown)
VH: EVHLVESGGALVKPGGSLKLSCAASGFSFSKYGMSWVRQTPDKRLEWVATISSSGSRTYYPDSVKGQFTISRDNAKNTLYLQMSSLKSEDTAMYYCSISWDGAMDYWGQGTSVTVSS
VL: DVLMTQTPLSLPVSLGDQASISCKSSQSIVHSNGNTYLEWYLQKPGQSPKLLVYKVSNRFSGVPDRFSGSGSGTDFTLKISRVEAEDLGTYYCFQGSLVPWAFGGGTKLEIK
binding result [2]: binds

B7: IPN002 antibody expressed from CB6-IPN002-LF2AH (TAU_ITR11) (antibody, V domains shown)
VH: EVHLVESGGALVKPGGSLKLSCAASGFSFSKYGMSWVRQTPDKRLEWVATISSSGSRTYYPDSVKGQFTISRDNAKNTLYLQMSSLKSEDTAMYYCSISWDGAMDYWGQGTSVTVSS
VL: DVLMTQTPLSLPVSLGDQASISCKSSQSIVHSNGNTYLEWYLQKPGQSPKLLVYKVSNRFSGVPDRFSGSGSGTDFTLKISRVEAEDLGTYYCFQGSLVPWAFGGGTKLEIK
binding result [1]: binds

B8: IPN002 Fab expressed from TAU_ITR123 (CBA, hGbin, HF.T2AL) (Fab, V domains shown)
VH: EVHLVESGGALVKPGGSLKLSCAASGFSFSKYGMSWVRQTPDKRLEWVATISSSGSRTYYPDSVKGQFTISRDNAKNTLYLQMSSLKSEDTAMYYCSISWDGAMDYWGQGTSVTVSS
VL: DVLMTQTPLSLPVSLGDQASISCKSSQSIVHSNGNTYLEWYLQKPGQSPKLLVYKVSNRFSGVPDRFSGSGSGTDFTLKISRVEAEDLGTYYCFQGSLVPWAFGGGTKLEIK
binding result [2]: binds

B9: IPN002 antibody expressed from CAG-IPN002-LT2AH (TAU_ITR10) (antibody, V domains shown)
VH: EVHLVESGGALVKPGGSLKLSCAASGFSFSKYGMSWVRQTPDKRLEWVATISSSGSRTYYPDSVKGQFTISRDNAKNTLYLQMSSLKSEDTAMYYCSISWDGAMDYWGQGTSVTVSS
VL: DVLMTQTPLSLPVSLGDQASISCKSSQSIVHSNGNTYLEWYLQKPGQSPKLLVYKVSNRFSGVPDRFSGSGSGTDFTLKISRVEAEDLGTYYCFQGSLVPWAFGGGTKLEIK
notes: Full antibody
binding result [1]: binds

B10: IPN002 antibody expressed from CAG-IPN002-HF.F2AL (TAU_ITR2) (antibody, V domains shown)
VH: EVHLVESGGALVKPGGSLKLSCAASGFSFSKYGMSWVRQTPDKRLEWVATISSSGSRTYYPDSVKGQFTISRDNAKNTLYLQMSSLKSEDTAMYYCSISWDGAMDYWGQGTSVTVSS
VL: DVLMTQTPLSLPVSLGDQASISCKSSQSIVHSNGNTYLEWYLQKPGQSPKLLVYKVSNRFSGVPDRFSGSGSGTDFTLKISRVEAEDLGTYYCFQGSLVPWAFGGGTKLEIK
binding result [1]: binds

B11: IPN002 Fab_ext expressed from TAU_ITR130 (CAG, LT2AH) (Fab, V domains shown)
VH: EVHLVESGGALVKPGGSLKLSCAASGFSFSKYGMSWVRQTPDKRLEWVATISSSGSRTYYPDSVKGQFTISRDNAKNTLYLQMSSLKSEDTAMYYCSISWDGAMDYWGQGTSVTVSS
VL: DVLMTQTPLSLPVSLGDQASISCKSSQSIVHSNGNTYLEWYLQKPGQSPKLLVYKVSNRFSGVPDRFSGSGSGTDFTLKISRVEAEDLGTYYCFQGSLVPWAFGGGTKLEIK
notes: Extended Fab
binding result [2]: binds

B12: IPN002 antibody expressed from CB6-IPN002-HF.T2AL (TAU_ITR4) (antibody, V domains shown)
VH: EVHLVESGGALVKPGGSLKLSCAASGFSFSKYGMSWVRQTPDKRLEWVATISSSGSRTYYPDSVKGQFTISRDNAKNTLYLQMSSLKSEDTAMYYCSISWDGAMDYWGQGTSVTVSS
VL: DVLMTQTPLSLPVSLGDQASISCKSSQSIVHSNGNTYLEWYLQKPGQSPKLLVYKVSNRFSGVPDRFSGSGSGTDFTLKISRVEAEDLGTYYCFQGSLVPWAFGGGTKLEIK
binding result [1]: binds

B13: IPN002 antibody expressed from CB6-IPN002-HF.F2AL (TAU_ITR3) (antibody, V domains shown)
VH: EVHLVESGGALVKPGGSLKLSCAASGFSFSKYGMSWVRQTPDKRLEWVATISSSGSRTYYPDSVKGQFTISRDNAKNTLYLQMSSLKSEDTAMYYCSISWDGAMDYWGQGTSVTVSS
VL: DVLMTQTPLSLPVSLGDQASISCKSSQSIVHSNGNTYLEWYLQKPGQSPKLLVYKVSNRFSGVPDRFSGSGSGTDFTLKISRVEAEDLGTYYCFQGSLVPWAFGGGTKLEIK
binding result [1]: binds

B14: IPN002 Fab_ext expressed from TAU_ITR128 (CAG, HF.T2AL) (Fab, V domains shown)
VH: EVHLVESGGALVKPGGSLKLSCAASGFSFSKYGMSWVRQTPDKRLEWVATISSSGSRTYYPDSVKGQFTISRDNAKNTLYLQMSSLKSEDTAMYYCSISWDGAMDYWGQGTSVTVSS
VL: DVLMTQTPLSLPVSLGDQASISCKSSQSIVHSNGNTYLEWYLQKPGQSPKLLVYKVSNRFSGVPDRFSGSGSGTDFTLKISRVEAEDLGTYYCFQGSLVPWAFGGGTKLEIK
binding result [2]: binds

B15: anti-tau antibody MC1 expressed from viral genome construct MC1LP2AH (TAU_ITR82; SEQ ID NO: 2071) (antibody, V domains shown)
VH: QVQLQQSGAELMKPGASVKISCKATGYTFSNYWIEWVKQRPGHGLEWIGEILPGSDSIKYNENFKGKATFTADTSSNTAYMQLSSLTSEDSAVYYCARRGNYPDYWGQGTTLTVSS
VL: DVVMTQTPLSLPVSLGDQASISCRSSQSLVHSNGNTYLHWYLQKPGQSPKLLIYKVSNRFSGVPDRFSGSGSGTDFTLKISRVEAEDLGVYFCSQSTHVPLTFGAGTKLELKR
OD450 [3]: 0.1 OD450 | OD450 [4]: 0.1 OD450 | OD450 [5]: 0.1 OD450 | OD450 [6]: 0.1 OD450 | OD450 [7]: 0.2 OD450 | OD450 [8]: 0.4 OD450 | OD450 [9]: 0.7 OD450 | OD450 [10]: 0.8 OD450

B16: anti-tau antibody MC1 expressed from viral genome construct MC1LF.P2AH (TAU_ITR83; SEQ ID NO: 2072) (antibody, V domains shown)
VH: QVQLQQSGAELMKPGASVKISCKATGYTFSNYWIEWVKQRPGHGLEWIGEILPGSDSIKYNENFKGKATFTADTSSNTAYMQLSSLTSEDSAVYYCARRGNYPDYWGQGTTLTVSS
VL: DVVMTQTPLSLPVSLGDQASISCRSSQSLVHSNGNTYLHWYLQKPGQSPKLLIYKVSNRFSGVPDRFSGSGSGTDFTLKISRVEAEDLGVYFCSQSTHVPLTFGAGTKLELKR
OD450 [3]: 0.1 OD450 | OD450 [4]: 0.1 OD450 | OD450 [5]: 0.1 OD450 | OD450 [6]: 0.1 OD450 | OD450 [7]: 0.1 OD450 | OD450 [8]: 0.2 OD450 | OD450 [9]: 0.4 OD450 | OD450 [10]: 0.6 OD450

B17: anti-tau antibody MC1 expressed from viral genome construct MC1HF.P2AL (TAU_ITR73; SEQ ID NO: 2062) (antibody, V domains shown)
VH: QVQLQQSGAELMKPGASVKISCKATGYTFSNYWIEWVKQRPGHGLEWIGEILPGSDSIKYNENFKGKATFTADTSSNTAYMQLSSLTSEDSAVYYCARRGNYPDYWGQGTTLTVSS
VL: DVVMTQTPLSLPVSLGDQASISCRSSQSLVHSNGNTYLHWYLQKPGQSPKLLIYKVSNRFSGVPDRFSGSGSGTDFTLKISRVEAEDLGVYFCSQSTHVPLTFGAGTKLELKR
OD450 [3]: 0.1 OD450 | OD450 [4]: 0.1 OD450 | OD450 [5]: 0.1 OD450 | OD450 [6]: 0.2 OD450 | OD450 [7]: 0.4 OD450 | OD450 [8]: 0.6 OD450 | OD450 [9]: 0.9 OD450 | OD450 [10]: 0.9 OD450
